Common to all, as to assay: Kd (EC50 corrected by depletion factor)
The target in one series is RPS16 (UniProt P62249). The procedure, abridged: (§1)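 Free RNA oligos (0 nM to 30 μM) were pre-incubated with HEK293-FT lysate (2.5 mg protein/well) for 1 h at 4°C, followed by 30 min at 4°C with the same 5′-amino-C6 oligos coupled to NHS-Sepharose beads. Bound proteins were quantified by label-free LC-MS/MS and normalised to the control. EC50 was derived from a four-parameter log-logistic fit, and Kd was obtained by multiplying EC50 by a protein-dependent depletion factor.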

Another series concerns the target LRPPRC (UniProt P42704). The essentials: as §1
For a further series, the target named is T1, RBMS2 (UniProt Q15434).
T1 sequence: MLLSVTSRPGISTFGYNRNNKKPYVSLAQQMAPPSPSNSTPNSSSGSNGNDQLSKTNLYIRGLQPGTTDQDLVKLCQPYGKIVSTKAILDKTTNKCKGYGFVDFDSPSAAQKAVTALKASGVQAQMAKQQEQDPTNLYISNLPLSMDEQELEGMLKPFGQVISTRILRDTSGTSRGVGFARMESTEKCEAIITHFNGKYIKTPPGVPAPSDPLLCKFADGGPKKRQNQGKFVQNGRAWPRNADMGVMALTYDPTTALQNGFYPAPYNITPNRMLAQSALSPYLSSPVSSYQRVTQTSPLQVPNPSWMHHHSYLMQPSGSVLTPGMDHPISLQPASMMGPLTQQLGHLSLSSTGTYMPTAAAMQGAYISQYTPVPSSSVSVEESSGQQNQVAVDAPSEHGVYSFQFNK
The essentials:
as §1

In another series the target is T2, AQR (UniProt O60306).
T2 sequence: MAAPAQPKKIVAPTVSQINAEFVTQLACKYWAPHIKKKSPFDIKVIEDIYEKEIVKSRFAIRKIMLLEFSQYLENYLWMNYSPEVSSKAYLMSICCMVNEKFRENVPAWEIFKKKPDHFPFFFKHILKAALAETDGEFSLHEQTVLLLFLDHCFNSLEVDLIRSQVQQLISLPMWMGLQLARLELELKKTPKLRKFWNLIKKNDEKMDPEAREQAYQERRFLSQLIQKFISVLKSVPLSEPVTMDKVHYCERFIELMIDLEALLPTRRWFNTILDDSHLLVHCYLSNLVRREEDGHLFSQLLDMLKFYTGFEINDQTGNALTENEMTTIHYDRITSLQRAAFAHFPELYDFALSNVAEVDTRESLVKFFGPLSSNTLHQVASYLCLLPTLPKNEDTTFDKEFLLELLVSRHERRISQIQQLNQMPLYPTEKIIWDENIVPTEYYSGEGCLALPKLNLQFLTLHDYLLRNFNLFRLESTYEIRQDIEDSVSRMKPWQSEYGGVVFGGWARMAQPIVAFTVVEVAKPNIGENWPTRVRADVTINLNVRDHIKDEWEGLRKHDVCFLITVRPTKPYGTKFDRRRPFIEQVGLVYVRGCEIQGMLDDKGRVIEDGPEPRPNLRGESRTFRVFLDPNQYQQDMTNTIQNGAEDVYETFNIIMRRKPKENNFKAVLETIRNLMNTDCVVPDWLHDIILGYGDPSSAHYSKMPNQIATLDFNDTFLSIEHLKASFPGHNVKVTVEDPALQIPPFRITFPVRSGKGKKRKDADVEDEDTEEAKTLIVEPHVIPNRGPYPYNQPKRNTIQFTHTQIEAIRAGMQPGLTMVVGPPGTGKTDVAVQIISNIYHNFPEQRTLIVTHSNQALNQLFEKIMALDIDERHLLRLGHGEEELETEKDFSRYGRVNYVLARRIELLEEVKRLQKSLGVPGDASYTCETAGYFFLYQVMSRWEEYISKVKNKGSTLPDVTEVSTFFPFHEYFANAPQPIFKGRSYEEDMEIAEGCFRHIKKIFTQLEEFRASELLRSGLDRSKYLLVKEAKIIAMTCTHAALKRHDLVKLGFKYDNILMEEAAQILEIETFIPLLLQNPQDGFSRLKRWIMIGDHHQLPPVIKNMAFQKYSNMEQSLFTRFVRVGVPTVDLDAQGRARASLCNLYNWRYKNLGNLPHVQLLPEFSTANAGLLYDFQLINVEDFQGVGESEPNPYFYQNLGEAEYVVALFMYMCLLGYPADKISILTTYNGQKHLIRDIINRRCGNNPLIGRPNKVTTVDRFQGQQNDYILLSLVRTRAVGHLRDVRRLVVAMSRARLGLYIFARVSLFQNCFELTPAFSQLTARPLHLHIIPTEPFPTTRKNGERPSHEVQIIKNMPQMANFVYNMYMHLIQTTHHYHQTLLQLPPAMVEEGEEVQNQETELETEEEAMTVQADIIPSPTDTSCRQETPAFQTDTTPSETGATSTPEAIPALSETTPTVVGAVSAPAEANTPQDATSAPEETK
The essentials: as §1

Another series addresses T3, MEX3A (UniProt A1L020).
T3 sequence: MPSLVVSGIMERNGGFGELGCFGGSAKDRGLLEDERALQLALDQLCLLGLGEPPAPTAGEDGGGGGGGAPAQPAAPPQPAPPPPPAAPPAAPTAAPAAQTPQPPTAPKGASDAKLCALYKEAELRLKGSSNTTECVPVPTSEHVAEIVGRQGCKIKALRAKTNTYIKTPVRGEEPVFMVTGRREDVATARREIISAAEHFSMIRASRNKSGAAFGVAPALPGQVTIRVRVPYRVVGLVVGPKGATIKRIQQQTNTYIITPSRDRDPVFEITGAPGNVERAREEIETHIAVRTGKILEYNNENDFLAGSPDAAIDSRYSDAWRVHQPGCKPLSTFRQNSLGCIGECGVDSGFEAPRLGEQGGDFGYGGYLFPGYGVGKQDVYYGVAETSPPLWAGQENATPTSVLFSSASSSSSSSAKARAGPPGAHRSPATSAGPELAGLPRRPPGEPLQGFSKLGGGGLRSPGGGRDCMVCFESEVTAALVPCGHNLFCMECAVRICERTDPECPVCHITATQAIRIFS
The essentials: as §1

Another series addresses ELAVL1 (UniProt Q15717). The essentials: as §1
The target in a further series is ELAVL2 (UniProt Q12926). The procedure, abridged: as §1
Another series deals with SRSF9 (UniProt Q13242). The procedure, abridged:
as §1

By Kd is commonly meant the concentration at which binding is half-saturated. A high value points to lower affinity.

Sequence of SRSF9 (Q13242 whole entry): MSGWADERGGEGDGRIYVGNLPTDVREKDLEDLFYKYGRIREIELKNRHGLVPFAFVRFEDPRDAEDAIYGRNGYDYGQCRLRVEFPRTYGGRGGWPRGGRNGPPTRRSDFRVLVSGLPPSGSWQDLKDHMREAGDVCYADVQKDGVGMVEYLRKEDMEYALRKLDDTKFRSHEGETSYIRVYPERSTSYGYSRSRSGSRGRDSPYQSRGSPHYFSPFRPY
Sequence of ELAVL1 (Q15717 whole entry): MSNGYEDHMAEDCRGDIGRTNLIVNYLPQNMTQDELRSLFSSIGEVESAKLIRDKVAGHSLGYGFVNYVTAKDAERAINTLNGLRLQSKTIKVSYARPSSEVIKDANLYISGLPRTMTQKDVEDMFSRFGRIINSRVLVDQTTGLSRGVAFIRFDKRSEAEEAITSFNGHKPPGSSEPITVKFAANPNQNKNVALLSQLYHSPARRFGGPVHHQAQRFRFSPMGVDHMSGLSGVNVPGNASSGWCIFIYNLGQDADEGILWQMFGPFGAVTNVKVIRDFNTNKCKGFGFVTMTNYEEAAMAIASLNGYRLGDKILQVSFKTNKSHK
Sequence of ELAVL2 (Q12926 whole entry): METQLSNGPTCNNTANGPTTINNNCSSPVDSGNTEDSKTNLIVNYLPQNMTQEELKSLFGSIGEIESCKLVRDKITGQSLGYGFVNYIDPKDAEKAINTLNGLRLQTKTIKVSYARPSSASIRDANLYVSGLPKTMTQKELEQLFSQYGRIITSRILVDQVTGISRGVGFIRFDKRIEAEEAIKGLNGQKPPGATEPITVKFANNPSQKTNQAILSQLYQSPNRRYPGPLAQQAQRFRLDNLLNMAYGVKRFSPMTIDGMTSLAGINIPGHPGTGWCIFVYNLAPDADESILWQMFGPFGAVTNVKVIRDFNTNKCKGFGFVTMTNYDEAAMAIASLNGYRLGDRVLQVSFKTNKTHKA

In the case of AAUAAA, the Kd in the series with RPS16 stood at 0.349 µM; with LRPPRC it was 1.13 µM; with RBMS2 it was 0.158 µM; with AQR, 0.213 µM; in the series with MEX3A it was 0.536 µM; with ELAVL1, 0.44 µM. This sequence also yielded a Kd with ELAVL2 of 8.83 µM.

As to CUGUCCU, the Kd stood at 0.077 µM with RPS16, 1.26 µM with LRPPRC and 2.23 µM with SRSF9.

Turning to UAUUUAU, the Kd with RBMS2 stood at 0.274 µM; with SRSF9, 5.92 µM; in the series with AQR, 0.32 µM; with MEX3A it was 0.277 µM; in the series with ELAVL1 it was 0.92 µM; with ELAVL2 it was 3.67 µM.

The values above are taken from the supplement of paper PMC6379048.
